Test results taken from patent publication US20250325556A1, “COMPOSITIONS FOR LOCAL BONE FORMATION” (OssiFi Therapeutics LLC, priority 2021, published 2025).

B1: sclerostin: ectopic sclerostin protein added to cells; inhibits mineralization in MC3T3 osteoblast cells (protein, UniProt Q9BQB4 24-213, looked up)
Sclerostin: QGWQAFKNDATEIIPELGEYPEPPPELENNKTMNRAENGGRPPHHPFETKDVSEYSCRELHFTRYVTDGPCRSAKPVTELVCSGQCGPARLLPNAIGRGKWWRPSGPDFRCIPDRYRAQRVQLLCPGGEAPRARKVRLVASCKCKRLTRFHNQSELKDFGTEAARPQKGRKPRPRARSAKANQAELENAY

System: MC3T3-E1 (mouse calvarial) osteoblast cells
Assay: Mineralization assay: rescue of the inhibition of mineralization by sclerostin (ARS mineralization)
Assay type: cell-based
Conditions: for ARS mineralization relative to wildtype mineralization: additive alone, no O20221-1, compared with cells with no additives
From the text: Mineralization (crystalline calcium phosphate formation) represents an in vitro model of bone formation. Using an assay in which the amount of mineralization is quantified by measuring total calcium after solubilization of deposited crystalline calcium phosphate, sclerostin was previously shown to inhibit mineralization in MC3T3-E1 (mouse calvarial) osteoblast cells. Li et al., J Bone Miner Res 24:578-588 (2008). Following the protocol described in Li et al., Compositions prepared in accordance with Example 1 or mixtures of the described composition components were assayed for their ability to rescue the inhibition of mineralization by sclerostin in MC3T3 osteoblast cells. This assay was used in the examples listed below.

Molecule	ARS mineralization, restoration of normal (wildtype) mineral (in presence of sclerostin, compared with wildtype mineralization (cells with no additives))	ARS mineralization relative to wildtype mineralization	ARS mineralization relative to wildtype mineralization (listed as Sclerostin)
COc1ccc2c3ccnc(C(F)(F)F)c3n(CCN3CCOCC3)c2n1 [O20221-1, 4-(2-(2-methoxy-8-(trifluoromethyl)-9H-pyrrolo[2,3-b:5,4-c′]dipyridin-9-yl)ethyl)morpholine]	restores normal mineral	–	–
B1	–	inhibits normal mineralization	inhibits wildtype mineralization
